Experimental data taken from patent US20180346912, “METHOD FOR STABILIZING DNA APTAMERS” (TAGCYX BIOTECHNOLOGIES, published 2018).

Target: vWF A1 domain (UniProt P04275 P04275:1277-1453)
Test: competition; EMSA competition vs 32P-ARC1172(wt) (=1.00), PBS, 0.1 mg/mL BSA, 37 C
Settings: tags: U-Protein Express BV
Method: In order to examine each prepared nucleic acid for its binding to vWF A1 domain, competition with ARC1172 reported as an aptamer binding to vWF A1 domain was tested using each variant nucleic acid. In 20 μL of a reaction solution (1× PBS and 0.1 mg/mL BSA). ARC1172 labeled with [γ-³²P]ATP (final concentration: 100 nM), each unlabeled nucleic acid (ARC1172(wt), ARC1172(wt)-iT, ARC1172-F, ARC 1172-F-iT, and ARC1172-G) (final concentration: 100 nM), and vWF A1 domain (100 nM, U-Protein Express BV) were mixed and incubated at 37° C. for 30 minutes. Then, 25% glycerol containing bromophenol blue was added thereto at a final glycerol concentration of 5%. Labeled ARC1172(wt) bound to vWF A1 domain was separated from labeled ARC1172 in a free form by 10% non-denaturing polyacrylamide gel electrophoresis. The gel was dried and visualized using Bio Image Analyzer FLA-7000, and the radioactivity was measured. The gel shift rate, the inhibition rate, and the relative binding rate were calculated in accordance with Example 2.

Chain of vWF A1 domain (P04275 1277-1453, one chain of several): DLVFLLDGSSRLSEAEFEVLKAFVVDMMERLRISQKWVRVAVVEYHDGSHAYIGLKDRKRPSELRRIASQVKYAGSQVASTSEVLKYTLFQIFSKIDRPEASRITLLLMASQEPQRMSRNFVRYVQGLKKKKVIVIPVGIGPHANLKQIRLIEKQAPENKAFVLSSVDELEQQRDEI

| Binder | binding signal (internal mini-hairpin) | further results |
| --- | --- | --- |
| GGCGTGCAGTGCCGAAGGCCGTGCGGTGCCTCCGTCACGCC (ssDNA, 3' idT) [ARC1172-F-iT] | 1.43 | – |
| GGCGTGCAGTGCCTTCGGCCGTGCGGTGCCTCCGTCACGCC (ssDNA, 3' idT) [ARC1172(wt)-iT] | – | binding signal: 1.12 |
| GGCGTGCAGTGCCGAAGGCCGTGCGGTGCCTCCGTCACGCC (ssDNA) [ARC1172-F] | 1.37 | – |
| GGCGTGCAGTGCCGAAGGCCGTGCGGTGCCTCCGTCACGCCCGCGAAGCG (ssDNA) [ARC1172-G] | – | binding signal (internal and 3' mini-hairpins): 1.61 |
